The values that follow come from PMC4633670, “Structural Characterization of a Newly Identified Component of α-Carboxysomes: The AAA+ Domain Protein CsoCbbQ” (Scientific Reports, 2015).

Data set [1] addresses Hexa-histidine-tagged H. nea CsoCbbQ (Hneap_0905) (Halothiobacillus neapolitanus). Put plainly: SEC; size exclusion data of recombinant CsoCbbQ (Supplementary Fig. 2); conditions not shown. On the technique in general: In gel filtration, larger molecules generally elute earlier.
Data set [2] shares this target. In words: crystal structure; His6-tagged CsoCbbQ crystallised with ATP in the mother liquor, ADP bound; 22 C, 0.1 M HEPES pH 7.5, 6% PEG-8000, 8% ethylene glycol; two molecules per asymmetric unit, hexamer by crystal symmetry.
Data set [3] addresses T1, N-terminal histidine-tagged CsoCbbO (Hneap_0910) (Halothiobacillus neapolitanus, UniProt D0KZ80 1-788).
T1 construct: CsoCbbO, cso-associated CbbO of Halothiobacillus neapolitanus, locus tag Hneap_0910; 788 amino acids, VWA domain in its C-terminus; amplified from genomic DNA with primers from the ATG to the stop codon; Cloned into the BamHI and HindIII sites of pETDuet-1; It was insoluble when expressed alone in E. coli; also called HT-CbbO; hisCsoCbbO; not shown: His6, N-terminal, kept
T1 sequence (looked up): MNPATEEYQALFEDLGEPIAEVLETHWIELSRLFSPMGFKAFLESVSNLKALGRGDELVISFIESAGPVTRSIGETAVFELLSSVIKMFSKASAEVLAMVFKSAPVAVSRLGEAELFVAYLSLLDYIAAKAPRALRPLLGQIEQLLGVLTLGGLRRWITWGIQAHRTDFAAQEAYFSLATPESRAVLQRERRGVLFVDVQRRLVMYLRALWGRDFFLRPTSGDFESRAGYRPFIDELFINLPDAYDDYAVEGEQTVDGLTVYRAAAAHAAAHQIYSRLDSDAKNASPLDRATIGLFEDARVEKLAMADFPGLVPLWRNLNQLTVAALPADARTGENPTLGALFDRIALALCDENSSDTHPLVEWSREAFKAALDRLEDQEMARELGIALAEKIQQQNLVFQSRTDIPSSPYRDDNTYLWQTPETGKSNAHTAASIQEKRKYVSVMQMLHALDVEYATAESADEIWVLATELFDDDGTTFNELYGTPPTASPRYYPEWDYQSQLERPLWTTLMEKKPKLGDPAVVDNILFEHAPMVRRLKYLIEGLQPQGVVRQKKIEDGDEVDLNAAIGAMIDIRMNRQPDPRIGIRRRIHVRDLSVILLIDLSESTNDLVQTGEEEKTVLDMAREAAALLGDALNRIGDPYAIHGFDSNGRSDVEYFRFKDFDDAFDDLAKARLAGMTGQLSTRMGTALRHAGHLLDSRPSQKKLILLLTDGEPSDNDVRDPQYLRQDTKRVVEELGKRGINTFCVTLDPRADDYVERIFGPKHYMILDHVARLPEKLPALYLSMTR
Put plainly: SEC; purified CsoCbbO/Q complex on Superdex 200 10/300 GL; 10 mM Tris-HCl pH 8.0, 100 mM NaCl, 0.25 ml/min; mass estimated against protein standards. Particulars: both partners purified.

Data set [4] concerns the molecule itself. The data set is described as above.

The stoichiometry N is a count of units in the complex or per binding partner. For “Hexa-histidine-tagged H. nea CsoCbbQ (Hneap_0905) (enzyme)”, the stoichiometry N in data set [1] and in data set [2] was 6 throughout.

B1: non-His6-tagged CsoCbbQ (NT-CbbQ) (enzyme, Halothiobacillus neapolitanus, UniProt D0KZ75 1-267, looked up)
chain: MTQNADQYRVRKEPYYRAVQDEIELYRAGYEARIPMMLKGPTGCGKSRFVEHMAWKLNRPLITIACNEDMTASDLVGRYLLDKDGTRWQDGPLTVAARIGAICYLDEIVEARQDTIVVIHPLTDHRRVLPLEKKGELVEAHPDFQIVISYNPGYQSLMKDLKQSTKQRFGALDFDYPKPDIEAEIVSHEAGVDKDTAEKLVQIAQKARNLKGHGLDEGLSTRLLVYAGKLIAKGVDARAACTMTLVNPITDDVDMRDALDTVVKTFF
notes: CsoCbbQ of Halothiobacillus neapolitanus, locus tag Hneap_0905
B1: the “stoichiometry N” value in data set [3] and in data set [4] was ~6 in each case.
